The source of these data is article PMC9135441.

One series concerns CCCCCC(O)C=CC=O. In words: purified protein. Particulars: NADPH.
Series [1] has as its system O=C[C@H](O)[C@@H](O)[C@H](O)[C@@H](O)CO. In words: purified protein. To be noted: NADPH.

A word on the Km: it is the substrate concentration at which the rate is half of its maximum. As for “aldose reductase (AKR1B1) (Homo sapiens)”, the Km in the series with CCCCCC(O)C=CC=O came out at 51 ± 5 µM; in series [1], 4260 ± 350 µM.
